# B1: unphosphorylated kinase domain of WNK3, WNK3 (118-409) (domain or fragment)
# chain: not shown
# B2: WNK1SA (WNK1/S382A), WNK1 (194-483) S382A, unphosphorylated kinase domain (domain or fragment)
# chain: not shown
# Experiments:
# [1] = target: the molecule itself; experiment: static light scattering
# [2] = target: the molecule itself; experiment: crystal structure
protein,measurement,setting,value
B1,stoichiometry N,[1],2
B2,binding result,[2],binds
